# Target: CD19 antigen on NALM-6 tumor cells (pre-B cell leukemia) (human) (UniProt P15391)
# Test: cell-based or functional assay
# Sequence of CD19 antigen on NALM-6 tumor cells (pre-B cell leukemia) (human) (P15391 20-556): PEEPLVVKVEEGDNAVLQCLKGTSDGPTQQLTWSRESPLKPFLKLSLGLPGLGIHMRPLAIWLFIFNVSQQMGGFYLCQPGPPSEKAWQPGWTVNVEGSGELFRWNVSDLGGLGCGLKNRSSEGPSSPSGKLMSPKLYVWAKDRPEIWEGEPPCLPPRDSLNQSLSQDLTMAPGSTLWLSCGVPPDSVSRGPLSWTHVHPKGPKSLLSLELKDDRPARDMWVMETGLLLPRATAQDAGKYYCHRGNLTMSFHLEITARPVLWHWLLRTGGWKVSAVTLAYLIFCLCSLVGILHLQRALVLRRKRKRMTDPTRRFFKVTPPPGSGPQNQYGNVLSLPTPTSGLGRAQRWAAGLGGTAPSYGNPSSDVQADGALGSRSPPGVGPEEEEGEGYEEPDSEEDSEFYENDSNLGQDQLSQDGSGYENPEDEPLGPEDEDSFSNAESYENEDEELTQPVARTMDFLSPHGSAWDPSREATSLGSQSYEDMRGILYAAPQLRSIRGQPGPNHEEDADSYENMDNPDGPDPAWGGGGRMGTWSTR
substance,measurement,value
"Anti-hCD19-CD3 bispecific T cell engager (BiTE) (InvivoGen, #bimab-hcd19cd3) (bispecific antibody)","BiTE-mediated NALM-6 tumor killing (luciferase-based readout, Bcl-xL-transfected CD8+ T cells as effectors)",> 95%

# Source: patent US20230302054A1
